According to patent publication US20030166536A1:
One block for each substance: values may come before it.

Key:
Assay in all cases: cell-based or functional assay
[1] = molecular target: human B-domainless factor VIII S488 → A (human) (UniProt P00451)
[2] = molecular target: HP5, hybrid human/porcine B-domainless factor VIII, porcine substitution 373-508 (human; porcine) (UniProt P00451)
[3] = molecular target: human B-domainless factor VIII P492 → A (human) (UniProt P00451)
[4] = molecular target: human B-domainless factor VIII R489 → A (human) (UniProt P00451)
[5] = molecular target: HP4, hybrid human/porcine B-domainless factor VIII, porcine substitution 373-540 (human; porcine) (UniProt P00451)
[6] = molecular target: human B-domainless factor VIII V495 → A (human) (UniProt P00451)
[7] = molecular target: human B-domainless factor VIII F501 → A (human) (UniProt P00451)
[8] = molecular target: human B-domainless factor VIII P485 → A (human) (UniProt P00451)
[9] = molecular target: HP12, hybrid human/porcine B-domainless factor VIII, porcine substitution 489-508 (human; porcine) (UniProt P00451)
[10] = molecular target: B-domainless human factor VIII (human) (UniProt P00451)
[11] = molecular target: human B-domainless factor VIII R484 → A (human) (UniProt P00451)
[12] = molecular target: human B-domainless factor VIII I508 → A (human) (UniProt P00451)
[13] = molecular target: HP8, hybrid human/porcine B-domainless factor VIII, porcine substitution 373-483 (human; porcine) (UniProt P00451)
[14] = molecular target: HP6, hybrid human/porcine B-domainless factor VIII, porcine substitution 373-444 (human; porcine) (UniProt P00451)
[15] = molecular target: human B-domainless factor VIII Y487 → A (human) (UniProt P00451)
[16] = molecular target: HP10, hybrid human/porcine B-domainless factor VIII, porcine substitution 373-403 (human; porcine) (UniProt P00451)
[17] = molecular target: HP13, hybrid human/porcine B-domainless factor VIII, porcine substitution 484-488 (human; porcine) (UniProt P00451)
[18] = molecular target: HP7, hybrid human/porcine B-domainless factor VIII, porcine substitution 445-508 (human; porcine) (UniProt P00451)
[19] = molecular target: HP9, hybrid human/porcine B-domainless factor VIII, porcine substitution 484-508 (human; porcine) (UniProt P00451)
[20] = molecular target: HP11, hybrid human/porcine B-domainless factor VIII, porcine substitution 404-508 (human; porcine) (UniProt P00451)
[21] = molecular target: human B-domainless factor VIII R490 → A (human) (UniProt P00451)
[22] = molecular target: human A1/A3-C1-C2 dimer of factor VIIIa (human) (UniProt P00451)
[23] = molecular target: porcine A1/A3-C1-C2 dimer of factor VIIIa (porcine) (UniProt P12263)

Sequence of human B-domainless factor VIII S488 → A (human) (P00451 other isoform, or with tags, fused parts or gaps): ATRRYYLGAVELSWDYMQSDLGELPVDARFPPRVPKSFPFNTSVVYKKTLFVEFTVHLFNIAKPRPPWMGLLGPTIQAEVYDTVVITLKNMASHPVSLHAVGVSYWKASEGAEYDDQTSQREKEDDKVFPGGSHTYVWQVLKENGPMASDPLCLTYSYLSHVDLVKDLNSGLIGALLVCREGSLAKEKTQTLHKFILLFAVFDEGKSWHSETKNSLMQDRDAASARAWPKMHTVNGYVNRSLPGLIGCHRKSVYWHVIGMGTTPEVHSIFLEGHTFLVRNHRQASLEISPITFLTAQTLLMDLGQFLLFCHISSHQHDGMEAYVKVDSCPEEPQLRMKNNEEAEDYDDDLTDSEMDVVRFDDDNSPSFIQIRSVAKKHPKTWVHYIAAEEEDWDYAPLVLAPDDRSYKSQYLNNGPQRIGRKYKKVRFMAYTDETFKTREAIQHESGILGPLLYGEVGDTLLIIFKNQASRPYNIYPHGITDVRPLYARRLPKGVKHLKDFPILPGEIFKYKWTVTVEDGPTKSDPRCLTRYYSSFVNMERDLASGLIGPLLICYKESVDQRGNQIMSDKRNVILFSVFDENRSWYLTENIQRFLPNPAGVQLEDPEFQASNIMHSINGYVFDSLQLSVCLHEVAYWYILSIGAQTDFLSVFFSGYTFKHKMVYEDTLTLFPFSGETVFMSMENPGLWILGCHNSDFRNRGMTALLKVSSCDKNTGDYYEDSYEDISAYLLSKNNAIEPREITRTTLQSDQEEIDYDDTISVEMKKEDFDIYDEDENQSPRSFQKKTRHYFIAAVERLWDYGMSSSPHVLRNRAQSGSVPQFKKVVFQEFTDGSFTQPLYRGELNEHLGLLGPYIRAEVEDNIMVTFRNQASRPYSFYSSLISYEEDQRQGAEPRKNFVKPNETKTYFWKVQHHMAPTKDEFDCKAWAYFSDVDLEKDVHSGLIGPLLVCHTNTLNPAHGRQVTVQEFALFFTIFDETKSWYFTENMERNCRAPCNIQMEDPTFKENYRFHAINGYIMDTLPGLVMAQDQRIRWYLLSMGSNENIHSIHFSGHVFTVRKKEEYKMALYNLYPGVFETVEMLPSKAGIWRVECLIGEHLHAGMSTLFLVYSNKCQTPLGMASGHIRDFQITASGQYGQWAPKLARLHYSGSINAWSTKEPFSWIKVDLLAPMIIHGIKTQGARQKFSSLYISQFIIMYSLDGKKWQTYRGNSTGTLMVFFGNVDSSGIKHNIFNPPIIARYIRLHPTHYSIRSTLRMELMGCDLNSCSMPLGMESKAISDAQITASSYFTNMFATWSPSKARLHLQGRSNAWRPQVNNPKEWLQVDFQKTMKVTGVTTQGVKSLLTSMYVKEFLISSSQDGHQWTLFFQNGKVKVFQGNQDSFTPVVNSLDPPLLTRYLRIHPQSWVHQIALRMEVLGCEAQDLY
Sequence of human B-domainless factor VIII P492 → A (human) (P00451 other isoform, or with tags, fused parts or gaps): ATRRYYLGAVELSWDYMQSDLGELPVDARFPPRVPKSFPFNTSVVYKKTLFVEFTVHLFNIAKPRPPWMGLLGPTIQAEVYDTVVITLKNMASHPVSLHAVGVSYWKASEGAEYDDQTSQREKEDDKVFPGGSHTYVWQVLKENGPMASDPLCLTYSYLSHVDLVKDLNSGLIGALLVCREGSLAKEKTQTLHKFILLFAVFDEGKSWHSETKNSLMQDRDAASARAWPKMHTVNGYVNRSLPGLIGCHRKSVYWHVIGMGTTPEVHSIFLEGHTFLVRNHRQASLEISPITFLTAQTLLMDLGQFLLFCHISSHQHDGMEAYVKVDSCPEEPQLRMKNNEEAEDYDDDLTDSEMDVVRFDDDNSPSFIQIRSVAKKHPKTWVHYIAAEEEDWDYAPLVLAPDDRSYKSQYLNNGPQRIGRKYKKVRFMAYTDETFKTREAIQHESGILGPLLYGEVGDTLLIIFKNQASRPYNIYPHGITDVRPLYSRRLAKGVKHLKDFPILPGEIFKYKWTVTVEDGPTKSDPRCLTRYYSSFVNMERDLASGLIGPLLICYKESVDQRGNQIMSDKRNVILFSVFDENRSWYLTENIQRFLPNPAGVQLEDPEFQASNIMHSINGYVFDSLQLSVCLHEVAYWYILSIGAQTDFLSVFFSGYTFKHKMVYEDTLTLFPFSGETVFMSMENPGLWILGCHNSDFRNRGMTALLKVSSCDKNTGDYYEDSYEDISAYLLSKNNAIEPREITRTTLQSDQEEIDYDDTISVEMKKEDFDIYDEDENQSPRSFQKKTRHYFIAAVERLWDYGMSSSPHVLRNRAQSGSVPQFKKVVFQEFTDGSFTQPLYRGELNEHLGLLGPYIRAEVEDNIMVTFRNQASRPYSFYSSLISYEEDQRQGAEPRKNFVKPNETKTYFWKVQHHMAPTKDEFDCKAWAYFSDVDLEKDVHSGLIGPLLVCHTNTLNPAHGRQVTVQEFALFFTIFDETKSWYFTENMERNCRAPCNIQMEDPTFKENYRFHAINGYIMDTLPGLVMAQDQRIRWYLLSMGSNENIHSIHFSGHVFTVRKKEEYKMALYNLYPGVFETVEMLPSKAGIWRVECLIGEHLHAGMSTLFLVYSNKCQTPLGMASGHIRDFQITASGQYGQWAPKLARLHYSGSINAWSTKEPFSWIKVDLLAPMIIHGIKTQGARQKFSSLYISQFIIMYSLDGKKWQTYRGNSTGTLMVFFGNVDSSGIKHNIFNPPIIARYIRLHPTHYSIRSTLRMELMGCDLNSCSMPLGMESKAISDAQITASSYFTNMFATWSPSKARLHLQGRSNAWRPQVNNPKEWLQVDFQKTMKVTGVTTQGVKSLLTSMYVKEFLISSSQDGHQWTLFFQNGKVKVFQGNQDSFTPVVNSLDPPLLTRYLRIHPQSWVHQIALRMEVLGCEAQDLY
Sequence of human B-domainless factor VIII R489 → A (human) (P00451 other isoform, or with tags, fused parts or gaps): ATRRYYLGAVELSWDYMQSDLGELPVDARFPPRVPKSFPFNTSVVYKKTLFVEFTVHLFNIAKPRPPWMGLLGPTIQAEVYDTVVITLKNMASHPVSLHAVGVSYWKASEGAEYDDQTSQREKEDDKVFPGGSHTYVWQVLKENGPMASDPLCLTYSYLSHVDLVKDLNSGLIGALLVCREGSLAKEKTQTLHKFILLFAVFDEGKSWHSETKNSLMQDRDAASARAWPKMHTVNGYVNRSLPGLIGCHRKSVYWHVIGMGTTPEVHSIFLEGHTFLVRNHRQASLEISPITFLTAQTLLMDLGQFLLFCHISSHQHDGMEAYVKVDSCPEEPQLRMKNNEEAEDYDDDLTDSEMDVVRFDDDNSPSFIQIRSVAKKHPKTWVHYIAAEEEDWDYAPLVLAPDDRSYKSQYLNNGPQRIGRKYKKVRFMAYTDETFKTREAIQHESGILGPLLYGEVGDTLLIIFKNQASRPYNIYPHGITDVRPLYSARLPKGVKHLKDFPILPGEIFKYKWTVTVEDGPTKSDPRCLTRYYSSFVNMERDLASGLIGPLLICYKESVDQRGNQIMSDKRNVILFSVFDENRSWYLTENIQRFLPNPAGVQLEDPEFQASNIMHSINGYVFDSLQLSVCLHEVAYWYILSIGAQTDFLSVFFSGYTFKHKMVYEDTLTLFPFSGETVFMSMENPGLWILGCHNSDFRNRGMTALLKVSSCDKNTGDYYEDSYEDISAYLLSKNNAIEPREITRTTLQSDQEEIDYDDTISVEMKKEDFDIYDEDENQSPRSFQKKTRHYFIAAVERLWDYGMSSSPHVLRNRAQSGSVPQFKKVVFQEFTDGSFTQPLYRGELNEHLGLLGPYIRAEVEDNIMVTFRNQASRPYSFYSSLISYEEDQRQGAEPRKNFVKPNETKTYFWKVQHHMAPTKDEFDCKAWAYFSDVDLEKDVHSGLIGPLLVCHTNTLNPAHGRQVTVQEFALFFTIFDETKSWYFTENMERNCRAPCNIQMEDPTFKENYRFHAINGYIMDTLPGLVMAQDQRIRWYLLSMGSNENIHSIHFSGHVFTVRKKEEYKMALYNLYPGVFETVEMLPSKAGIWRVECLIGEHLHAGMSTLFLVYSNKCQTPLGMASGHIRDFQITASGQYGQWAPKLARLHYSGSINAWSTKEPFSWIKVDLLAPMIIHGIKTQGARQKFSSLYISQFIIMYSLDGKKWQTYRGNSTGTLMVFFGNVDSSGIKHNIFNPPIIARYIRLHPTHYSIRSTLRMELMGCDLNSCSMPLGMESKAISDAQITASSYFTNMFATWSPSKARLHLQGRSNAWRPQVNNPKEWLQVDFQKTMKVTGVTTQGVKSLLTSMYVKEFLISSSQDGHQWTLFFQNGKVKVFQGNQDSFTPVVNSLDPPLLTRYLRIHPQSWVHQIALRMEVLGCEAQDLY

% Reactivity relative to wild-type [1]: 37%
MAb413 titer (BU/mg), Bethesda assay [1]: 3500 BU/mg
Inhibition mAb413 (BU/mg IgG), Bethesda assay [2]: < 0.7 BU/mg IgG
% Reactivity relative to wild-type [3]: 6.7%
MAb413 titer (BU/mg), Bethesda assay [3]: 630 BU/mg
% Reactivity relative to wild-type [4]: 0.015%
MAb413 titer (BU/mg), Bethesda assay [4]: 1.6 BU/mg
Inhibition mAb413 (BU/mg IgG), Bethesda assay [5]: < 0.7 BU/mg IgG
% Reactivity relative to wild-type [6]: 113%
MAb413 titer (BU/mg), Bethesda assay [6]: 10700 BU/mg
% Reactivity relative to wild-type [7]: 126%
MAb413 titer (BU/mg), Bethesda assay [7]: 11900 BU/mg
% Reactivity relative to wild-type [8]: 42%
MAb413 titer (BU/mg), Bethesda assay [8]: 4000 BU/mg
Inhibition mAb413 (BU/mg IgG), Bethesda assay [9]: < 0.7 BU/mg IgG
Inhibition mAb413 (BU/mg IgG), Bethesda assay [10]: 1470 BU/mg IgG
MAb413 titer (BU/mg), Bethesda assay [10]: 9400 BU/mg
% Reactivity relative to wild-type [11]: 1.7%
MAb413 titer (BU/mg), Bethesda assay [11]: 160 BU/mg
% Reactivity relative to wild-type [12]: 60%
MAb413 titer (BU/mg), Bethesda assay [12]: 5620 BU/mg
Inhibition mAb413 (BU/mg IgG), Bethesda assay [13]: 1250 BU/mg IgG
Inhibition mAb413 (BU/mg IgG), Bethesda assay [14]: 1450 BU/mg IgG
% Reactivity relative to wild-type [15]: 0.53%
MAb413 titer (BU/mg), Bethesda assay [15]: 50 BU/mg
Inhibition mAb413 (BU/mg IgG), Bethesda assay [16]: 1170 BU/mg IgG
Inhibition mAb413 (BU/mg IgG), Bethesda assay [17]: < 0.7 BU/mg IgG
Inhibition mAb413 (BU/mg IgG), Bethesda assay [18]: < 0.7 BU/mg IgG
Inhibition mAb413 (BU/mg IgG), Bethesda assay [19]: < 0.7 BU/mg IgG
Inhibition mAb413 (BU/mg IgG), Bethesda assay [20]: < 0.7 BU/mg IgG
% Reactivity relative to wild-type [21]: < 0.5%
reactivity to inhibitor relative to human factor VIII [21]: 0.2%
Substance: mAb413, murine monoclonal inhibitory antibody specific for the A2 domain of factor VIII

Specific Activity (U/mg) of reconstituted hybrid fVIIIa, two-stage clotting assay at 1 hour [22]: 140000 U/mg
Specific Activity (U/mg) of reconstituted fVIIIa, two-stage clotting assay at 1 hour [23]: 70000 U/mg
Substance: porcine factor VIIIa A2 domain, isolated from porcine blood (from UniProt P12263 392-759)
